Results reported in the supplement of paper PMC10724198.
± gives the standard deviation of the averaged measurements.

Test system: Saccharomyces cerevisiae
Assay: protein stability index of tFT-peptide fusion (C-terminal peptide) (PSI (0-1 scale)); higher = more stable (slower turnover)
Details: genetic background: wild type; temperature: 30 C
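Also: PSI is a weighted mean of sequencing reads over stability bins, variants kept only with over 10 reads, mCherry proximal and sfGFP distal, peptide attached via GGGS linker.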

Sequence	protein stability index
VGPFRISRSFTG	0.7174 ± 0.004
VGQGVPEGGGQW	0.726 ± 0.018
VGRGEEAHTPRR	0.678 ± 0.013
VGRGGGVSLGGR	0.671 ± 0.082
VGRGGPGVGGSW	0.736 ± 0.043
VGRVNRNERCQR	0.587 ± 0.022
VGSSGDEWGRYG	0.7332 ± 0.0046
VGVCCLSGDGFV	0.6889 ± 0.0048
VGVGGEQISIEY	0.723 ± 0.054
VGVGWAALRWYG	0.6761 ± 0.0047
VGVIREGKENGN	0.656 ± 0.023
VGVSGAGFSWGG	0.712 ± 0.0095
VGVVGGRWCGRG	0.648 ± 0.0099
VGVVLNEPYSQE	0.702 ± 0.011
VGVWWWWCFGSW	0.595 ± 0.069
VGWAGHVWFWWG	0.683 ± 0.064
VGWFELWGVSSG	0.76 ± 0.052
VGWHFPDGVVDC	0.8 ± 0.12
VGWQGRWWVWGG	0.5679 ± 0.005
VGWVLGCRGLGW	0.694 ± 0.067
VHDPLLPIFLIR	0.684 ± 0.042
VHFGVLSLGKRH	0.769 ± 0.16
VHRMWINARDCV	0.676 ± 0.05
VIFCVGRFSGGS	0.645 ± 0.085
VIFIRCFNFQDG	0.614 ± 0.052
VILFINRIDDGK	0.616 ± 0.057

Sequence	protein stability index
VIQMVIYEKDQR	0.681 ± 0.04
VIRQPSSKLWIQ	0.6559 ± 0.0057
VISLFSSLCSRL	0.797 ± 0.05
VIVHFIWPSVGR	0.652 ± 0.03
VKASPSDGGIVP	0.725 ± 0.035
VKESILVGRYDC	0.709 ± 0.016
VKKSTPIKKPQT	0.651 ± 0.062
VKPVLEILKTKT	0.663 ± 0.037
VKSMVCQGHLGI	0.722 ± 0.043
VKVKRCVRKVGG	0.687 ± 0.046
VLANAAGLEGFA	0.681 ± 0.041
VLCVDQVEVSFV	0.678 ± 0.03
VLDCRDVSCHVL	0.661 ± 0.0081
VLDPRGEFFSHP	0.657 ± 0.044
VLFLESWLRFRT	0.623 ± 0.073
VLGSYFNGIWLF	0.534 ± 0.019
VLGVDVIQVCPI	0.682 ± 0.018
VLGWGSKCLVGS	0.7 ± 0.035
VLHGFGSLRDRV	0.717 ± 0.017
VLLAAFLLPGLR	0.634 ± 0.033
VLLQDLSYLIGQ	0.707 ± 0.065
VLLSSPSLLFFE	0.703 ± 0.039
VLLSTLHLRGFG	0.537 ± 0.04
VLMDVVGLGSSS	0.683 ± 0.019
VLNRFENRNSKA	0.7098 ± 0.0035
VLPLRPGRKLSG	0.664 ± 0.054

Sequence	protein stability index
VLPVLTWWGELG	0.733 ± 0.018
VLRCVLTYGKPS	0.673 ± 0.031
VLRGYRRVGVPP	0.616 ± 0.016
VLRSSFYLSFPR	0.611 ± 0.013
VLRSTQGAINRI	0.717 ± 0.02
VLSFFQCSWVLL	0.574 ± 0.057
VLSFPYLSRKCI	0.546 ± 0.037
VLSGAPGLIVYA	0.602 ± 0.043
VLSLPPLFRTSA	0.636 ± 0.0086
VLTSRCGLLFVL	0.62 ± 0.044
VLTSSVLPSFFP	0.627 ± 0.018
VLVPVDRCGYIG	0.619 ± 0.11
VLWIVDLFACEG	0.585 ± 0.0037
VLYPVISVLTTL	0.629 ± 0.011
VMKAVNKTKRNV	0.664 ± 0.041
VMVTMGNMDSEA	0.635 ± 0.031
VMVYLRSPLLDR	0.748 ± 0.059
VNAGAPGVLAWV	0.739 ± 0.021
VNAVLFWPRQLS	0.619 ± 0.013
VNFGWWVVGSRS	0.685 ± 0.062
VNHVVRFFFSSH	0.676 ± 0.019
VPAALAGADCSP	0.763 ± 0.085
VPAGDPPGAWKA	0.746 ± 0.025
VPALLPLLPSPP	0.712 ± 0.03
VPFPHTHPLLTP	0.757 ± 0.054
VPITLRFSFLTP	0.598 ± 0.073

Sequence	protein stability index
VPPCESLSALSS	0.707 ± 0.034
VPPPLPSPPSHP	0.761 ± 0.038
VPPPLTSPSWHF	0.6825 ± 0.0036
VPRLARTRPKHA	0.641 ± 0.042
VPRPLPPSPLLV	0.644 ± 0.13
VPRPPGPPPGPV	0.667 ± 0.053
VPRTGSLHARLP	0.715 ± 0.03
VPVISYVQTSIA	0.558 ± 0.033
VPVMVVCVPSKE	0.715 ± 0.035
VQDALPLLVPPF	0.762 ± 0.021
VQGEGVVAISMT	0.712 ± 0.021
VQGGSSCLWSVR	0.72 ± 0.01
VQGIKFRNSVEV	0.665 ± 0.044
VQLCQGWIGSES	0.676 ± 0.0089
VQRKVCTFRRSD	0.665 ± 0.14
VQSSLFGLGVQC	0.566 ± 0.033
VQTLYSQLPALR	0.78 ± 0.069
VQWSRFRVGMAE	0.848 ± 0.19
VRAGLAGGPGRV	0.684 ± 0.024
VRAWIGDVENGV	0.574 ± 0.058
VRCGCDFRVSRC	0.717 ± 0.062
VRCLGAVEDCLS	0.657 ± 0.013
VRDGGLCYLAQL	0.667 ± 0.019
VREQRLPLARRV	0.706 ± 0.07
VRFGWCLGSGDG	0.702 ± 0.068
VRFLWWGLFWGW	0.499 ± 0.016

Sequence	protein stability index
VRFPVEPYEAMF	0.71 ± 0.0097
VRFSVKPAFVRV	0.577 ± 0.032
VRGDRRHRGVWG	0.709 ± 0.066
VRGGGSREERGC	0.639 ± 0.061
VRGRREGVADER	0.712 ± 0.084
VRGSLFGICSAL	0.705 ± 0.06
VRPPRLSSCLLS	0.656 ± 0.024
VRPRSSSQRPTP	0.689 ± 0.011
VRQCSSGFRGAF	0.674 ± 0.07
VRRPSPSGGWLR	0.73 ± 0.051
VRRWCQFLGCCG	0.682 ± 0.0081
VRSSELFNGVWC	0.736 ± 0.093
VRVCRSVGAGMT	0.649 ± 0.034
VRVCWGCCGVVF	0.51 ± 0.024
VRWIEYDVKGWA	0.71 ± 0.011
VSAPRPPPAPSP	0.786 ± 0.1
VSCGRVGVARLG	0.641 ± 0.016
VSCLFFFVSIPF	0.5176 ± 0.0035
VSEVDVRGKGIR	0.783 ± 0.068
VSFRRFKFKVKM	0.661 ± 0.061
VSGLDSLHPSSN	0.717 ± 0.034
VSGNLITLRCFT	0.59604 ± 0.00021
VSKLTRHLWANQ	0.61 ± 0.094
VSLGRRGDRGLC	0.719 ± 0.031
VSMPIVPWPLLQ	0.54 ± 0.016
VSNTSAWLLWIS	0.629 ± 0.032

Sequence	protein stability index
VSPLRGSRAPFP	0.744 ± 0.068
VSRDVMYLGLGG	0.721 ± 0.18
VSRGGAVRLSTQ	0.7027 ± 0.0027
VSRGGWLKWDEG	0.66 ± 0.028
VSRITSRFEKKM	0.592 ± 0.0086
VSRRSGVGICHL	0.609 ± 0.13
VSRVWAHFGFCG	0.707 ± 0.02
VSSCSGVLLCVP	0.544 ± 0.016
VSSPRLSPRLLY	0.775 ± 0.084
VSSSLPVHLSLS	0.717 ± 0.037
VSSVGILPFRFN	0.72 ± 0.077
VSVIRIVPPEFI	0.672 ± 0.03
VSVLVAFDTLPG	0.711 ± 0.034
VSVVGDVWGYGG	0.753 ± 0.068
VSYFARCLGSLA	0.629 ± 0.0011
VTCGVGQHAAIA	0.731 ± 0.053
VTFRTFFVPTFK	0.662 ± 0.097
VTNGGGMGWYRR	0.652 ± 0.078
VTPLPSLPHHRA	0.604 ± 0.041
VTPVQFMFRLHF	0.646 ± 0.054
VTSSIQNRCTSC	0.706 ± 0.076
VVALTSVRSRDV	0.6759 ± 0.0013
VVALVLVGRHGG	0.597 ± 0.041
VVARLERAGLGG	0.766 ± 0.094
VVCGARGDGRCE	0.6834 ± 0.0068
VVCSTRRPSLGS	0.681 ± 0.03

Sequence	protein stability index
VVCVGAEVGEGG	0.7197 ± 0.0067
VVEKKKKKKNNK	0.73 ± 0.041
VVGGAWTEAGGG	0.632 ± 0.035
VVHGIGLIYTGG	0.68 ± 0.041
VVHVGVWGLGRG	0.64819 ± 0.00032
VVIFYSSESRRR	0.724 ± 0.03
VVISRTPAALES	0.697 ± 0.013
VVLCAALHRTYG	0.638 ± 0.012
VVLGGGVGRGCW	0.691 ± 0.13
VVPYRCQRLGDG	0.686 ± 0.061
VVRARLYVWWLG	0.664 ± 0.13
VVRGPSGAGRAG	0.665 ± 0.052
VVRWRMGLFGGR	0.654 ± 0.013
VVSAIISGLSIK	0.733 ± 0.0088
VVSDGRSYGLLK	0.73703 ± 0.00014
VVSEQLDRGMRF	0.694 ± 0.039
VVVRRSEVGGRV	0.65 ± 0.095
VVWGAWGGWGCW	0.726 ± 0.056
VVWSGWGCGGVR	0.619 ± 0.015
VWAVGRATARER	0.6969 ± 0.0025
VWAWGDGGGAVV	0.728 ± 0.051
VWDGLAVAATCS	0.597 ± 0.085
VWFEAGLGWFFL	0.721 ± 0.047
VWFGAGSYSFLC	0.5683 ± 0.0016
VWGGGLLVGAGW	0.669 ± 0.035
VWRSTVRVSRAG	0.763 ± 0.051

Sequence	protein stability index
VWSWVDSFCRGG	0.744 ± 0.042
VWVEVDGLLVVV	0.534 ± 0.043
VWVQISGRLNWK	0.709 ± 0.06
VWVVGADEDAVR	0.698 ± 0.03
VYFFSSIFRCFV	0.544 ± 0.048
VYFLWPRFVCDA	0.585 ± 0.044
VYLRSMLSLNIR	0.676 ± 0.051
VYPRNLPGSVPL	0.666 ± 0.02
VYPRRLLPSRGL	0.668 ± 0.098
VYQLTKNERVIK	0.643 ± 0.1
VYRRGESRTHGD	0.682 ± 0.018
VYSVDGGKTVLD	0.669 ± 0.028
VYTIHECADMLY	0.712 ± 0.045
VYVLHNVMCSSD	0.632 ± 0.051
VYYDSVVSLSGA	0.661 ± 0.079
WAARPSATGDRC	0.664 ± 0.042
WAAWGGGEAWGV	0.698 ± 0.047
WAFYFPWSSSLM	0.726 ± 0.036
WAGGANGEWGEW	0.8097 ± 0.0021
WARGGRVDDGGG	0.62 ± 0.057
